Target: wt HBc capsid like particles (Hepatitis B virus core protein) (Human Hepatitis B virus) (UniProt P03147)
Assay: cryo-EM structure

“wt HBc capsid like particles (Hepatitis B virus core protein) (from UniProt P03147) (natural protein)” was tested, and the stoichiometry N was 240.
